Reference: patent publication US20240108688A1, “Inhibitors of the tissue factor-protease activated receptor 2 (TF-PAR2) signaling pathway for use in the treatment or prevention of heart failure (HF) and associated or resulting diseases” (priority 2020, published 2024)

Tests used:
[1] = test system: permanent LAD ligation mouse model of MI
Description: B), High-frequency ultrasound echocardiography obtained in parasternal long axis (PLAX) with measurement of left ventricular ejection fraction (LVEF, %) and left ventricular end diastolic volume (LVEDV, μl) on day 7 after operation. […] Ordinary one-way ANOVA, Sidak's multiple comparison test, n=4-7 animals per group.
C), Experimental design: Mice were injected with NAPc2 (1 mg/kg/d) once daily by i.p. injection from day 1 through day 7. D), High-frequency echocardiography obtained in parasternal long axis (PLAX) with measurement of LVEF, LVEDV on day 7 after LAD ligation. E), Representative blots for protein expression analysis of pERK1/2, NOX2, TGF-β1 and α-SMA in infarcted myocardium obtained from vehicle or NAPc2 treated mice. F-H, Mice were injected with NAPc2 (1 mg/kg/d) and/or vehicle (1 mg/kg/d) once daily by i.p. injection from day 1 through day 7 followed by longitudinal analysis. […] Echocardiographic studies over 4 weeks from day 7 for LVEF (%), LVEDV (p1) in PLAX M-mode; two-way ANOVA, Bonferroni's multiple comparisons test, n=6-12 animals per each group (G). Kaplan-Meier survival analysis of LAD ligated versus sham operated NAPc2 876 and vehicle treated mice after 4 weeks. Log-rank (Mantel-Cox) test, n=7-15 animals per group (H).

[2] = human, in vivo; cited from earlier work
[3] = prevention of venous thromboembolism, total knee replacement patients (ref 27); cited from earlier work
human monocytes = experiment: Isolated human monocytes exposed to hypoxia (OGD) plus inflammatory cytokine cocktail, western blot; assay type: cell-based; conditions: NAPc2 200 ng/ml; cytokine cocktail 20 ng/ml plus hypoxia
From the text: Representative blots and quantification. […] Representative images and quantification of replicates.
Monocytes isolation and in vitro culture: Bone marrow derived cell suspensions were isolated by flushing femurs and tibias of 8-12 weeks old mice. Cell aggregates were removed by gentle pipetting and the cell lysates were passed through a 70 μm nylon strainer to remove the cell debris. Furthermore, to enrich monocytes population, mouse monocyte isolation Kit ([…] Technologies Inc., Vancouver, BC, Canada) was used according to standard protocols provided by the manufacturer. To mimic in vivo ischemic conditions, a protocol of oxygen-glucose-deprivation (OGD) is applied along with the cytokine cocktail mix (IL-6, TNF-α and MCP-1) at concentrations of 20 ng/ml for 4 hours followed by the protein expression analysis of pERK1/2, NOX2 and TGF-β1 on isolated monocytes. […] For blocking TF-FVIIa signaling on human monocytes, isolated monocytes from healthy individuals were treated with NAPc2 in the presence of OGD along with the cytokine cocktail mix followed by the protein expression analysis of pERK1/2, NOX2 and TGF-β1.

[4] = NAPc2 1 mg/kg/d i.p. day 1-7, western blot
[5] = NAPc2 1 mg/kg/d i.p. starting 1 day after MI, 7 d after LAD ligation

Row | Molecule | cardiac function in sham-operated mice ([1]; trametinib 1 mg/kg/d oral, sham surgery) | cardiac function (LVEF, LVEDV by echocardiography) ([1]; NAPc2 1 mg/kg/d i.p. day 1-7, day 7 after LAD ligation) | cardiac infiltration of CD11b+ myeloid cells ([1]; NAPc2 1 mg/kg/d i.p. day 1-7, flow cytometry of infarcted myocardium) | ERK1/2 phosphorylation in the infarcted heart [1, 4] | NOX2 expression in the infarcted heart [1, 4] | TGF-β1 activation in the infarcted heart [1, 4] | up-regulation of the downstream target α-SMA in the infarcted heart [1, 4] | levels of NOX2 in circulating myeloid cells (PBMCs) [1, 5] | levels of active TGF-β1 in circulating myeloid cells (PBMCs) [1, 5] | cardiac fibrosis (fibrotic areas normalized to surface area) ([1]; short term NAPc2 1 mg/kg/d i.p. from 1 d until 7 d post MI, longitudinal analysis, compared to vehicle) | survival (Kaplan-Meier, 4 weeks) ([1]; short term NAPc2 1 mg/kg/d i.p. from 1 d until 7 d post MI, LAD ligated mice) | cardiac function in chronic MI (LVEF, LVEDV over 4 weeks) ([1]; short term NAPc2 1 mg/kg/d i.p. from 1 d until 7 d post MI, compared to vehicle) | safety [2] | antithrombotic effect [3] | ERK1/2 phosphorylation (human monocytes) | NOX2 expression (human monocytes) | TGF-β1 activation (human monocytes)
1 | CC(=O)Nc1cccc(-n2c(=O)n(C3CC3)c(=O)c3c(Nc4ccc(I)cc4F)n(C)c(=O)c(C)c32)c1 [trametinib, reference compound] | no significant effects |  |  |  |  |  |  |  |  |  |  |  |  |  |  |  | 
2 | NAPc2: single-chain, non-glycosylated 85 amino acid protein, 9732 Da; blocks TF signaling and coagulation via inhibited TF-FVIIa-FX(a) complex (protein, listed as Ancylostoma caninum) KATMQCGENEKYDSCGSKECDKKCKYDGVEEEDDEEPNVPCLVRVCHQDCVCEEGFYRNKDDKCVSAEDCELDNMDFIYPGTRN |  | improved cardiac function | attenuated | diminished | diminished | diminished | diminished | attenuated | attenuated | significantly reduced | improved survival | improved cardiac function | documented safety | has been demonstrated | reduced | suppressed | suppressed
